Results from the supplement of paper PMC9112550, “Optimization of the antimicrobial peptide Bac7 by deep mutational scanning” (BMC Biology, 2022).

Test system: Escherichia coli TOP10
Assay: shrunken log2 fold change of peptide-encoding DNA abundance (4.5 h post-induction vs induction); higher = less antimicrobial activity (less host growth inhibition)
Details: time post-induction: 4.5 h; library: site-saturation at positions 5, 18, 19, 20
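Note: peptides expressed intracellularly from a pBAD plasmid library in pooled LB shake-flask culture, induced with 0.3% L-arabinose, DNA abundance read by NGS, three biological replicates, DESeq2 with apeglm shrinkage.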

| Sequence | shrunken log2 fold change |
| --- | --- |
| RRIRKRPPRLPRPRPRPDNGPRP | -0.0558 |
| RRIRYRPPRLPRPRPRPHDHPRP | 1.33 |
| RRIRTRPPRLPRPRPRPIRNPRP | -0.324 |
| RRIRLRPPRLPRPRPRPNTTPRP | -0.463 |
| RRIRPRPPRLPRPRPRPVMLPRP | -0.0771 |
| RRIRQRPPRLPRPRPRPRMMPRP | -0.161 |
| RRIRDRPPRLPRPRPRPPSLPRP | -0.128 |
| RRIRPRPPRLPRPRPRPECPPRP | 0.353 |
| RRIRARPPRLPRPRPRPGREPRP | 0.388 |
| RRIRFRPPRLPRPRPRPFRPPRP | -0.466 |
| RRIRERPPRLPRPRPRPQPFPRP | 0.217 |
| RRIRGRPPRLPRPRPRPRFLPRP | 0.448 |
| RRIRNRPPRLPRPRPRPSQIPRP | -0.664 |
| RRIRSRPPRLPRPRPRPFGAPRP | 0.162 |
| RRIRKRPPRLPRPRPRPKCWPRP | 0.382 |
| RRIRHRPPRLPRPRPRPQKVPRP | -0.0567 |
| RRIRIRPPRLPRPRPRPTTSPRP | -0.0703 |
| RRIRRRPPRLPRPRPRPWVLPRP | 0.0819 |
| RRIRVRPPRLPRPRPRPMGYPRP | -0.0568 |
| RRIRSRPPRLPRPRPRPDPEPRP | 0.183 |
| RRIRMRPPRLPRPRPRPALKPRP | 1.09 |
| RRIRMRPPRLPRPRPRPENYPRP | -0.0708 |
| RRIRIRPPRLPRPRPRPPSEPRP | -0.118 |
| RRIRPRPPRLPRPRPRPGPDPRP | 0.28 |
| RRIRSRPPRLPRPRPRPDNVPRP | 4.24 |

| Sequence | shrunken log2 fold change |
| --- | --- |
| RRIRERPPRLPRPRPRPGKYPRP | -0.17 |
| RRIRIRPPRLPRPRPRPKMLPRP | 0.154 |
| RRIRKRPPRLPRPRPRPRTWPRP | 0.124 |
| RRIRMRPPRLPRPRPRPPCVPRP | 0.389 |
| RRIRQRPPRLPRPRPRPKAWPRP | -0.0334 |
| RRIRGRPPRLPRPRPRPRDPPRP | 1.32 |
| RRIRYRPPRLPRPRPRPGYYPRP | -0.545 |
| RRIRDRPPRLPRPRPRPLKEPRP | -0.277 |
| RRIRFRPPRLPRPRPRPQRHPRP | -0.0437 |
| RRIRTRPPRLPRPRPRPVPPPRP | 0.396 |
| RRIRSRPPRLPRPRPRPIQEPRP | 0.000527 |
| RRIRSRPPRLPRPRPRPMACPRP | -0.342 |
| RRIRARPPRLPRPRPRPVAAPRP | 1.54 |
| RRIRDRPPRLPRPRPRPQTYPRP | -0.24 |
| RRIRWRPPRLPRPRPRPAMLPRP | 0.365 |
| RRIRTRPPRLPRPRPRPIMVPRP | -0.198 |
| RRIRTRPPRLPRPRPRPGAKPRP | 0.524 |
| RRIRVRPPRLPRPRPRPCHPPRP | -0.0124 |
| RRIRIRPPRLPRPRPRPYLPPRP | -0.206 |
| RRIRPRPPRLPRPRPRPWMYPRP | -0.691 |
| RRIRCRPPRLPRPRPRPVIIPRP | -1.28 |
| RRIRVRPPRLPRPRPRPPMSPRP | -0.249 |
| RRIRWRPPRLPRPRPRPFAYPRP | -0.304 |
| RRIRLRPPRLPRPRPRPMSEPRP | -0.0383 |
| RRIRFRPPRLPRPRPRPTFHPRP | -0.385 |

| Sequence | shrunken log2 fold change |
| --- | --- |
| RRIRCRPPRLPRPRPRPYTEPRP | -1.42 |
| RRIRLRPPRLPRPRPRPKEFPRP | -0.0126 |
| RRIRFRPPRLPRPRPRPANFPRP | 0.151 |
| RRIRARPPRLPRPRPRPTCRPRP | 0.592 |
| RRIRHRPPRLPRPRPRPQHRPRP | -0.355 |
| RRIRHRPPRLPRPRPRPPILPRP | -0.0767 |
| RRIRHRPPRLPRPRPRPVDNPRP | 0.013 |
| RRIRKRPPRLPRPRPRPDGFPRP | 0.0522 |
| RRIRYRPPRLPRPRPRPRSCPRP | -0.434 |
| RRIRNRPPRLPRPRPRPRENPRP | -0.0577 |
| RRIRERPPRLPRPRPRPTHYPRP | -0.312 |
| RRIRKRPPRLPRPRPRPDPPPRP | 0.927 |
| RRIRFRPPRLPRPRPRPDFFPRP | -0.027 |
| RRIRHRPPRLPRPRPRPYNRPRP | -0.0244 |
| RRIRQRPPRLPRPRPRPPMPPRP | 0.237 |
| RRIRNRPPRLPRPRPRPNCNPRP | -0.549 |
| RRIRSRPPRLPRPRPRPCHIPRP | -0.872 |
| RRIRFRPPRLPRPRPRPGYNPRP | -0.332 |
| RRIRLRPPRLPRPRPRPHMDPRP | -0.549 |
| RRIRNRPPRLPRPRPRPQLFPRP | 0.177 |
| RRIRRRPPRLPRPRPRPMVPPRP | 0.135 |
| RRIRARPPRLPRPRPRPMWLPRP | 0.0028 |
| RRIRRRPPRLPRPRPRPGWAPRP | 0.573 |
| RRIRKRPPRLPRPRPRPKRRPRP | 0.0103 |
| RRIRQRPPRLPRPRPRPKYNPRP | -0.879 |

| Sequence | shrunken log2 fold change |
| --- | --- |
| RRIRDRPPRLPRPRPRPIDMPRP | -0.185 |
| RRIRFRPPRLPRPRPRPEPHPRP | 0.258 |
| RRIRYRPPRLPRPRPRPAEMPRP | -1.02 |
| RRIRPRPPRLPRPRPRPKNLPRP | -0.0674 |
| RRIRARPPRLPRPRPRPGRQPRP | 0.706 |
| RRIRFRPPRLPRPRPRPVIYPRP | -0.588 |
| RRIRCRPPRLPRPRPRPRYDPRP | -0.596 |
| RRIRERPPRLPRPRPRPPWSPRP | -0.0222 |
| RRIRHRPPRLPRPRPRPQWCPRP | -0.218 |
| RRIRFRPPRLPRPRPRPDWSPRP | -0.214 |
| RRIRERPPRLPRPRPRPHGKPRP | -0.0244 |
| RRIRYRPPRLPRPRPRPPSEPRP | -0.0723 |
| RRIRHRPPRLPRPRPRPWDDPRP | -0.0102 |
| RRIRARPPRLPRPRPRPLNHPRP | -0.265 |
| RRIRCRPPRLPRPRPRPTRTPRP | 0.406 |
| RRIRARPPRLPRPRPRPELWPRP | 1.3 |
| RRIRSRPPRLPRPRPRPLCFPRP | -0.0528 |
| RRIRHRPPRLPRPRPRPMEIPRP | -0.0801 |
| RRIRFRPPRLPRPRPRPCLWPRP | -0.0174 |
| RRIRHRPPRLPRPRPRPMWVPRP | -0.015 |
| RRIRKRPPRLPRPRPRPGNRPRP | 0.143 |
| RRIRKRPPRLPRPRPRPKYLPRP | -0.0198 |
| RRIRARPPRLPRPRPRPLFAPRP | 0.647 |
| RRIRNRPPRLPRPRPRPKCGPRP | -0.0686 |
| RRIRERPPRLPRPRPRPPFPPRP | 0.018 |

| Sequence | shrunken log2 fold change |
| --- | --- |
| RRIRPRPPRLPRPRPRPNCTPRP | -0.0727 |
| RRIRKRPPRLPRPRPRPEKPPRP | 0.0899 |
| RRIRVRPPRLPRPRPRPMAQPRP | 0.149 |
| RRIRSRPPRLPRPRPRPNAEPRP | 0.572 |
| RRIRWRPPRLPRPRPRPVWLPRP | 0.284 |
| RRIRNRPPRLPRPRPRPLMSPRP | -0.316 |
| RRIRPRPPRLPRPRPRPYDFPRP | -0.194 |
| RRIRARPPRLPRPRPRPQMEPRP | -0.154 |
| RRIRRRPPRLPRPRPRPSTQPRP | -0.245 |
| RRIRYRPPRLPRPRPRPWHKPRP | -0.377 |
| RRIRDRPPRLPRPRPRPQLKPRP | -0.0603 |
| RRIRKRPPRLPRPRPRPEQMPRP | -0.000598 |
| RRIRSRPPRLPRPRPRPLLHPRP | -0.0854 |
| RRIRFRPPRLPRPRPRPDRAPRP | 0.131 |
| RRIRNRPPRLPRPRPRPEMRPRP | -0.0181 |
| RRIRKRPPRLPRPRPRPCPDPRP | -0.0203 |
| RRIRRRPPRLPRPRPRPVRLPRP | 1.08 |
| RRIRNRPPRLPRPRPRPNRYPRP | -0.0433 |
| RRIRGRPPRLPRPRPRPEGLPRP | 1.06 |
| RRIRPRPPRLPRPRPRPQGNPRP | -0.146 |
| RRIRHRPPRLPRPRPRPPKGPRP | 0.113 |
| RRIRDRPPRLPRPRPRPLGMPRP | 0.111 |
| RRIRVRPPRLPRPRPRPDNMPRP | -0.868 |
| RRIRVRPPRLPRPRPRPYNWPRP | -0.603 |
| RRIRGRPPRLPRPRPRPCWCPRP | 0.171 |

| Sequence | shrunken log2 fold change |
| --- | --- |
| RRIRGRPPRLPRPRPRPPAEPRP | 1.64 |
| RRIRSRPPRLPRPRPRPPLTPRP | 0.367 |
| RRIRKRPPRLPRPRPRPTCPPRP | 0.0404 |
| RRIRHRPPRLPRPRPRPEVCPRP | 0.116 |
| RRIRQRPPRLPRPRPRPWRQPRP | 0.029 |
| RRIRCRPPRLPRPRPRPSLFPRP | -0.293 |
| RRIRTRPPRLPRPRPRPGANPRP | -0.124 |
| RRIRYRPPRLPRPRPRPACWPRP | 0.47 |
| RRIRMRPPRLPRPRPRPMQYPRP | -0.315 |
| RRIRDRPPRLPRPRPRPDGMPRP | 0.232 |
| RRIRMRPPRLPRPRPRPFCGPRP | -0.0687 |
| RRIRDRPPRLPRPRPRPSVQPRP | 0.111 |
| RRIRQRPPRLPRPRPRPAGSPRP | 0.0285 |
| RRIRDRPPRLPRPRPRPSLPPRP | -0.00636 |
| RRIRWRPPRLPRPRPRPYEKPRP | -0.139 |
| RRIRARPPRLPRPRPRPNDKPRP | -0.129 |
| RRIRCRPPRLPRPRPRPLFKPRP | -0.475 |
| RRIRIRPPRLPRPRPRPFWMPRP | -0.192 |
| RRIRERPPRLPRPRPRPDQLPRP | -0.248 |
| RRIRKRPPRLPRPRPRPLFVPRP | 0.153 |
| RRIRLRPPRLPRPRPRPCYRPRP | -0.145 |
| RRIRTRPPRLPRPRPRPAYGPRP | -0.285 |
| RRIRTRPPRLPRPRPRPHQSPRP | -0.179 |
| RRIRHRPPRLPRPRPRPHFGPRP | -0.00776 |
| RRIRTRPPRLPRPRPRPEYRPRP | 0.0555 |
